# Source: patent US20230192896A1 (published 2023)
# Residue numbers refer to the chain shown, from its start.
# B1: BIIB-12-1312 (antibody, V domains shown)
# VH: QVQLVESGGGVVQPGRSLRLSCAASGFTFSSYGMHWVRQAPGKGLEWVAVISYDGSNKYYADSVKGRFTISRDNSKNTLYLQMNSLRAEDTAVYYCAKGMGHWIDYWGQGTLVTVSS
# VL: DIQMTQSPSSVSASVGDRVTITCRASQGISSWLAWYQQKPGKAPKLLIYAASSLQSGVPSRFSGSGSGTDFTLTISSLQPEDFATYYCQQASSFPPTFGGGTKVEIK
# B2: BIIB-12-895 (antibody, V domains shown)
# VH: QVQLVQSGAEVKKPGASVKVSCKASGYTFTSYYMHWVRQAPGQGLEWMGIINPSGGSTSYAQKFQGRVTMTRDTSTSTVYMELSSLRSEDTAVYYCARGGGYKSRGIDYWGQGTLVTVSS
# VL: DIQMTQSPSSVSASVGDRVTITCRASQGISSWLAWYQQKPGKAPKLLIYAASSLQSGVPSRFSGSGSGTDFTLTISSLQPEDFATYYCQQASSFPFTFGGGTKVEI
# B3: BIIB-12-1304 (antibody, V domains shown)
# VH: QVQLVESGGGVVQPGRSLRLSCAASGFTFSSYGMHWVRQAPGKGLEWVAVISYDGSNKYYADSVKGRFTISRDNSKNTLYLQMNSLRAEDTAVYYCAKGPGSRRFDIWGQGTMVTVSS
# VL: EIVMTQSPATLSVSPGERATLSCRASQSVSSNLAWYQQKPGQAPRLLIYGASTRATGIPARFSGSGSGTEFTLTISSLQSEDFAVYYCQQANVLPLTFGGGTKVEIK
# B4: BIIB-12-918 (antibody, V domains shown)
# VH: B3 VH with G99S, P100L, S102G, R104S
# VL: B1 VL with V11L, G28S, S31R, W32Y, A34N, A91I, S92F, F94L, P96I
# B5: BIIB-12-893 (antibody, V domains shown)
# VH: QVQLVQSGAEVKKPGASVKVSCKASGYTFTSYYMVWVRQAPGQGLEWMGIINPSGGSTSYAQKFQGRVTMTRDTSTSTVYMELSSLRSEDTAVYYCARDPGRRQYSFYGMDVWGQGTTVTVSS
# VL: B1 VL with M4L, S92A, S93A, P96F
# B6: BIIB-12-896 (antibody, V domains shown)
# VH: B2 VH with G100L, Y102Q, K103Q, S104R, I107F, Y109I
# VL: B1 VL with S92N, P96F
# B7: BIIB-12-1289 (antibody, V domains shown)
# VH: QVQLVQSGAEVKKPGASVKVSCKASGYTFTSYYMHWVRQAPGQGLEWMGIINPGGGSTSYAQKFQGRVTMTRDTSTSTVYMELSSLRSEDTAVYYCARGPPRTYATGSHNWFDPWGQGTLVTVSS
# VL: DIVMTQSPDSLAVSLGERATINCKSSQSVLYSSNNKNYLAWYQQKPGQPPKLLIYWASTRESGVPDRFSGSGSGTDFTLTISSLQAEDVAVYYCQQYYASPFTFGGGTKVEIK
# B8: BIIB-12-898 (antibody, V domains shown)
# VH: QVQLVQSGAEVKKPGASVKVSCKASGYTFTSYYMHWVRQAPGQGLEWMGIINPSGGSTTYAQKFQGRVTMTRDTSTSTVYMELSSLRSEDTAVYYCARGDRMLRAFDPWGQGTLVTVSS
# VL: DIQLTQSPSTLSASVGDRVTITCRASQAISSWLAWYQQKPGKAPKLLIYDASSLESGVPSRFSGSGSGTEFTLTISSLQPDDFATYYCQQVNRFPFTFGGGTKVEIK
# B9: BIIB-12-905 (antibody, V domains shown)
# VH: QVQLVESGGGVVQPGRSLRLSCAASGFTFSSYGMHWVRQAPGKGLEWVAVISYDGSNKYYADSVKGRFTISRDNSKNTLYLQMNSLRAEDTAVYYCAKGGTYLDTWGQGTLVTVSS
# VL: EIVLTQSPGTLSLSPGERATLSCRASQSVRSSYLAWYQQKPGQAPRLLIYGASSRATGIPDRFSGSGSGTDFTLTISRLEPEDFAVYYCQQYGRFPPTFGGGTKVEIK
# B10: BIIB-12-1309 (antibody, V domains shown)
# VH: QVQLVESGGGVVQPGRSLRLSCAASGFTFSSYGMHWVRQAPGKGLEWVAVISYDGSNKYYADSVKGRFTISRDNSKNTLYLQMNSLRAEDTAVYYCARGRYTSRYFQHWGQGTLVTVSS
# VL: B1 VL with S92N, F94L, P96I
# B11: BIIB-12-930 (antibody, V domains shown)
# VH: QVQLVQSGAEVKKPGASVKVSCKASGYTFTSYYMHWVRQAPGQGLEWMGIINPSGGSTSYAQKFQGRVTMTRDTSTSTVYMELSSLRSEDTAVYYCARVRQKATLLFQHWGQGTLVTVSS
# VL: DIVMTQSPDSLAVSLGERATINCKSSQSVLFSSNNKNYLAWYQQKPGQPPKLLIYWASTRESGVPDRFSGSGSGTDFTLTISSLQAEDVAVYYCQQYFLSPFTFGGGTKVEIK
# B12: BIIB-12-922 (antibody, V domains shown)
# VH: QVQLVQSGAEVKKPGASVKVSCKASGYTFTSYYMHWVRQAPGQGLEWMGIINPSGGSTSYAQKFQGRVTMTRDTSTSTVYMELSSLRSEDTAVYYCARRGRIAGMWGQGTTVTVSS
# VL: not shown
# B13: BIIB-12-1307 (antibody, V domains shown)
# VH: QVQLQESGPGLVKPSETLSLTCAVSGYSISSGYYWAWIRQPPGKGLEWIGSIYHSGSTYYNPSLKSRVTISVDTSKNQFSLKLSSVTAADTAVYYCARGPLPRSRGLAFDIWGQGTMVTVSS
# VL: B1 VL with M4L, V11L, G28S, W32F, A34N, A91T, S92Y, F94T, P96L
# B14: BIIB-12-1333 (antibody, V domains shown)
# VH: QVQLVQSGAEVKKPGASVKVSCKASGYTFTSYYMVWVRQAPGQGLEWMGIINPSGGSTSYAQKFQGRVTMTRDTSTSTVYMELSSLRSEDTAVYYCARVSRRDYPLAFDIWGQGTMVTVSS
# VL: EIVMTQSPATLSVSPGERATLSCRASQSVSSNLAWYQQKPGQAPRLLIYGASTRATGIPARFSGSGSGTEFTLTISSLQSEDFAVYYCQQVNTWPTFGGGTKVEIK
# B15: BIIB-12-912 (antibody, V domains shown)
# VH: B3 VH with G99S, P100G, S102R, R103Y, R104G, F105Y
# VL: B3 VL with A91F, N92H, V93N, L94F, L96P
# B16: BIIB-12-1329 (antibody, V domains shown)
# VH: B10 VH with R100G, Y101A, T102G
# VL: B3 VL with L11K, G50S, A91V, N92F, V93N, L94W, L96P, E105K
# B17: BIIB-12-907 (antibody, V domains shown)
# VH: QVQLQESGPGLVKPSETLSLTCAVSGYSISSGYYWAWIRQPPGKGLEWIGSIYHSGSTYYNPSLKSRVTISVDTSKNQFSLKLSSVTAADTAVYYCARESGMSGAAYWGQGTLVTVSS
# VL: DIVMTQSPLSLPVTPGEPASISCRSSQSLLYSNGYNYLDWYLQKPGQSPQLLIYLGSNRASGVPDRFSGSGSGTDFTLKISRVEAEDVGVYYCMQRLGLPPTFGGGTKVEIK
# B18: BIIB-12-1316 (antibody, V domains shown)
# VH: B3 VH with G99S, P100G, G101Q, S102Y, R104A
# VL: B1 VL with A91I, S92N, S93N
# B19: BIIB-12-1302 (antibody, V domains shown)
# VH: QVQLVQSGAEVKKPGASVKVSCKASGYTFTNYGISWVRQAPGQGLEWMGWISAYNGNTNYAQKLQGRVTMTTDTSTSTAYMELRSLRSDDTAVYYCARARSDWRAFDIWGQGTMVTVSS
# VL: B3 VL with A91V, V93N
# B20: BIIB-12-919 (antibody, V domains shown)
# VH: QVQLVQSGAEVKKPGASVKVSCKASGYTFTSYYMHWVRQAPGQGLEWMGVINPSGGSTSYAQKFQGRVTMTRDTSTSTVYMELSSLRSEDTAVYYCARGANIAVGRRYADYWGQGTLVTVSS
# VL: DIQMTQSPSTLSASVGDRVTITCRASQSISSWLAWYQQKPGKAPKLLIYKASSLESGVPSRFSGSGSGTEFTLTISSLQPDDFATYYCQQVSSYPTFGGGTKVEIK
# B21: BIIB-12-1326 (antibody, V domains shown)
# VH: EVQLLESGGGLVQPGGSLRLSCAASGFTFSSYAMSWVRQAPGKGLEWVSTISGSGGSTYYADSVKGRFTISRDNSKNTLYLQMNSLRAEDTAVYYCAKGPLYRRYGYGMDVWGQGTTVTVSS
# VL: B9 VL with Y92A, G93Y, R94S, F95S, P97L
# B22: BIIB-12-897 (antibody, V domains shown)
# VH: QLQLQESGPGLVKPSETLSLTCTVSGGSISSSSYYWGWIRQPPGKGLEWIGSIYYSGSTYYNPSLKSRVTISVDTSKNQFSLKLSSVTAADTAVYYCAREGRTYYGGWFDPWGQGTLVTVSS
# VL: B9 VL with R30S, Y92D, R94N, F95Y, P97Y
# B23: BIIB-12-906 (antibody, V domains shown)
# VH: B9 VH with G99S, G100S, T101R, Y102H, L103F, T105Y, Q108R
# VL: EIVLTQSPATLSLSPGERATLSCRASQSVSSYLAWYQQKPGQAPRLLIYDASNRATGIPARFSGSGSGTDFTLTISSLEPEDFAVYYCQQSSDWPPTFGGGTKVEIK
# B24: BIIB-12-937 (antibody, V domains shown)
# VH: QVQLVQSGAEVKKPGASVKVSCKASGYTFTSYYMHWVRQAPGQGLEWMGIINPSGGSTSYAQKFQGRVTMTRDTSTSTVYMELSSLRSEDTAVYYCARPTRMLRSYGMDVWGQGTTVTVSS
# VL: not shown
# Biological target: T1, FX zymogen (UniProt P00742 41-179; P00742 183-488)
# T1 chain 1: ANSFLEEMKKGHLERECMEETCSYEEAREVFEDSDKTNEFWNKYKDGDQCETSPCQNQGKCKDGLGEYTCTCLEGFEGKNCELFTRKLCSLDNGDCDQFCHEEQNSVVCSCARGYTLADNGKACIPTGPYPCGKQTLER
# T1 chain 2: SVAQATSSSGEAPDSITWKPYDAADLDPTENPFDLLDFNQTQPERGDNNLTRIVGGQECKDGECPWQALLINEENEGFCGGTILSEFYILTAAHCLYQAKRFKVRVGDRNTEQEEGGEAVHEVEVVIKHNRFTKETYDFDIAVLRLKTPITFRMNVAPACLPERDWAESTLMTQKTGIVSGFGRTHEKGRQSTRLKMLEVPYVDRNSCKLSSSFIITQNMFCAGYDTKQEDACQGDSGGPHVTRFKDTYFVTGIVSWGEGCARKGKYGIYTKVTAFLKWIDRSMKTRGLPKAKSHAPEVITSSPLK
# Test: BLI
binder,measurement,value
B1,Kd,14.7 nM
B2,Kd,26.3 nM
B3,Kd,50.5 nM
B4,Kd,27.7 nM
B5,Kd,52.2 nM
B6,Kd,63.4 nM
B7,Kd,48 nM
B8,Kd,18.5 nM
B9,Kd,48.4 nM
B10,Kd,49.9 nM
B11,Kd,56 nM
B12,Kd,38.6 nM
B13,Kd,19.8 nM
B14,Kd,16 nM
B15,Kd,31.1 nM
B16,Kd,48.5 nM
B17,Kd,52 nM
B18,Kd,45 nM
B19,Kd,64.1 nM
B20,Kd,23.1 nM
B21,Kd,24.1 nM
B22,Kd,68 nM
B23,Kd,39.6 nM
B24,Kd,23.7 nM
